One test has as its target S309. Kind of test: SPR.
Test [1] addresses R. shameli ACE2‐mFC (Rhinolophus shameli). Briefly: SPR. (SPR reads the build-up and loss of mass on a sensor chip optically.)

pKd: −log10 of the molar value.

Turning to “RshSTT182/200 receptor binding domain (RBD) (domain or fragment)”, the pKd – broadly, the Kd on a negative log10 scale, so that one unit is a factor of ten – in the test with S309 is 8.43.

Regarding “SARS‐CoV‐2 RBD (from UniProt P0DTC2 319-541) (domain or fragment)”, the pKd in test [1] was 5.18.
